Source: patent US20050152926A1
Blank lines part the entries; values can stand above or below the binder they belong to.

How the values were obtained:
[1] = biological target: HLA A2 on RMA-S/A2 cells (human); test: RMA-S/A2 HLA A2 stabilisation, BB7.2 FACS; 100 µM peptide; FIG 1(xxv)
[2] = biological target: HLA A2 on RMA-S/A2 cells (human); test: RMA-S/A2 HLA A2 stabilisation, BB7.2 FACS; 100 µM peptide; ΔMean minus highest HepB ΔMean
[3] = biological target: HLA A2 on RMA-S/A2 cells (human); test: RMA-S/A2 HLA A2 stabilisation, BB7.2 FACS; 100 µM peptide; FIG 2(x)
[4] = biological target: HLA A2 on RMA-S/A2 cells (human); test: RMA-S/A2 HLA A2 stabilisation, BB7.2 FACS; 100 µM peptide; FIG 3(xxv)
[5] = biological target: HLA A2 on RMA-S/A2 cells (human); test: RMA-S/A2 HLA A2 stabilisation, BB7.2 FACS; 100 µM peptide; FIG 1(xxii)
[6] = biological target: HLA A2 on RMA-S/A2 cells (human); test: RMA-S/A2 HLA A2 stabilisation, BB7.2 FACS; 100 µM peptide; FIG 3(xxiii)
[7] = biological target: HLA A2 on RMA-S/A2 cells (human); test: RMA-S/A2 HLA A2 stabilisation, BB7.2 FACS; 1 µM peptide; FIG 1(xii)
[8] = biological target: HLA A2 on RMA-S/A2 cells (human); test: RMA-S/A2 HLA A2 stabilisation, BB7.2 FACS; 1 µM peptide; ΔMean minus highest HepB ΔMean
[9] = biological target: HLA A2 on RMA-S/A2 cells (human); test: RMA-S/A2 HLA A2 stabilisation, BB7.2 FACS; 100 µM peptide; FIG 3(xxii)
[10] = biological target: HLA A2 on RMA-S/A2 cells (human); test: RMA-S/A2 HLA A2 stabilisation, BB7.2 FACS; 100 µM peptide; FIG 3(xxi)
[11] = biological target: HLA A2 on RMA-S/A2 cells (human); test: RMA-S/A2 HLA A2 stabilisation, BB7.2 FACS; 100 µM peptide; FIG 3(xx)
[12] = biological target: HLA A2 on RMA-S/A2 cells (human); test: RMA-S/A2 HLA A2 stabilisation, BB7.2 FACS; 10 µM peptide; FIG 2(xi)
[13] = biological target: HLA A2 on RMA-S/A2 cells (human); test: RMA-S/A2 HLA A2 stabilisation, BB7.2 FACS; 10 µM peptide; ΔMean minus highest HepB ΔMean
[14] = biological target: HLA A2 on RMA-S/A2 cells (human); test: RMA-S/A2 HLA A2 stabilisation, BB7.2 FACS; 100 µM peptide; FIG 3(xxiv)
[15] = biological target: HLA A2 on RMA-S/A2 cells (human); test: RMA-S/A2 HLA A2 stabilisation, BB7.2 FACS; 100 µM peptide; FIG 1(xxvi)
[16] = biological target: HLA A2 on RMA-S/A2 cells (human); test: RMA-S/A2 HLA A2 stabilisation, BB7.2 FACS; 100 µM peptide; FIG 1(xxi)
[17] = biological target: HLA A2 on RMA-S/A2 cells (human); test: RMA-S/A2 HLA A2 stabilisation, BB7.2 FACS; 100 µM peptide; FIG 3(xix)
[18] = biological target: HLA A2 on RMA-S/A2 cells (human); test: RMA-S/A2 HLA A2 stabilisation, BB7.2 FACS; 100 µM peptide; FIG 2(xix)

Mean 2 [1]: 436 | Δ Mean [1]: 240 | High - B [2]: 0
Binder: LLLTLGYAV (modifications not checked) [CH19]

Mean 2 [3]: 440 | Δ Mean [3]: 275 | High - B [2]: 121
Binder: TLWGSFVDV (modifications not checked) [CH21]

Mean 2 [4]: 383 | Δ Mean [4]: 240 | High - B [2]: 80
Binder: NLAGGILSV (modifications not checked) [CH56]

Mean 2 [5]: 433 | Δ Mean [5]: 232 | High - B [2]: 0
Binder: VQLAYVFDV (modifications not checked) [CH16]

Δ Mean [6]: 251 | High - B [2]: 91
Binder: ALWKENQAL (modifications not checked) [CH54]

Mean 2 [7]: 419 | Δ Mean [7]: 224 | High - B [8]: 0
Binder: VLNLFFSAL (modifications not checked) [CH3]

Mean 2 [9]: 350 | Δ Mean [9]: 209 | High - B [2]: 48
Binder: NLWSHYTDL (modifications not checked) [CH53]

Mean 2 [10]: 396 | Δ Mean [10]: 249 | High - B [2]: 89
Binder: SLLEEHPVV (modifications not checked) [CH52]

Mean 2 [11]: 311 | Δ Mean [11]: 179 | High - B [2]: 19
Binder: NLSRQAFFA (modifications not checked) [CH51]

Mean 2 [12]: 390 | Δ Mean [12]: 227 | High - B [13]: 73
Binder: WLFDLRFSV (modifications not checked) [CH22]

Mean 2 [14]: 411 | Δ Mean [14]: 258 | High - B [2]: 98
Binder: ALWGHNVLL (modifications not checked) [CH55]

Mean 2 [15]: 578 | Δ Mean [15]: 384 | High - B [2]: 138
Binder: ALMLLNNYV (modifications not checked) [CH20]

Mean 2 [16]: 557 | Δ Mean [16]: 322 | High - B [2]: 76
Binder: YLTSYSPYV (modifications not checked) [CH15]

Mean 2 [17]: 381 | Δ Mean [17]: 251 | High - B [2]: 91
Binder: SLCAQSSYV (modifications not checked) [CH50]

Mean 2 [18]: 390 | Δ Mean [18]: 235 | High - B [2]: 81
Binder: KLLKDHFDL (modifications not checked) [CH34]
